US20190375786A1, “STABLE PEPTIDES AND METHODS OF USE THEREOF” (Fred Hutchinson Cancer Research Center, priority 2016, published 2019)
Entries after “also recorded” stand apart in the source; their conditions may differ. Positions of bridges follow the written chain, without caps; N, C: chain ends. Residues, ends and D or L forms follow the SMILES beside them.

Legend:
trypsin = trypsin (Sus scrofa, UniProt P00761); assay: Trypsin digestion resistance of soluble peptide, RP-HPLC; type: in vitro ADME, porcine; parameters: purchased Sigma Aldrich 6567; conditions: 500 U/ml trypsin (50 U per reaction), 30 minutes at 37.5° C.; HPLC
Chain of trypsin (P00761 9-231): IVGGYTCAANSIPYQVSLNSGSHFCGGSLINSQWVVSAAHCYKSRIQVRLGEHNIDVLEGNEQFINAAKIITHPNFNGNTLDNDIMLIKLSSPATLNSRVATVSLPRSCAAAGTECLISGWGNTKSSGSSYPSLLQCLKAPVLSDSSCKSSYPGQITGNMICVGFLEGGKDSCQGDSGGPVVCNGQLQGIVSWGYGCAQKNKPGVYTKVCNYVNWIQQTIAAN
Experimental: (§1) Peptides were first suspended in 500 μl of ddH2O to a stock concentration of 2 mg/ml. Reactions were prepared by adding 12.5 μg of peptide from the stock solution to a 10 mM solution of DTT in PBS and allowed to incubate at room temperature for 30 minutes. Other reactions were prepared with 12.5 μg peptide and 500 U/ml trypsin in 25 mM Tris/75 mM NaCl buffer (pH 7.0) and incubated for 30 minutes at 37.5° C. These reactions were then quenched with 5 μg of soybean trypsin inhibitor (I) and, in some cases, 10 mM dithiothreitol (DTT). Reversed phase HPLC (RP-HPLC) was run on samples using an Agilent 1260 HPLC equipped with a C-18 Poroshell 120B column. Sample were analyzed by a gradient method with a mobile phase of Solvent A (water with 0.1% TFA) and Solvent B (acetonitrile with 0.1% TFA). Solvent B was ramped up from 5%-45% of the mobile phase over a period of 10 minutes. For testing pepsin digestion resistance, reactions were prepared with 12.5 μg peptide with or without 500 U/ml pepsin in simulated gastric fluid (SGF; pH 1.05; […] sodium chloride in 0.7% (v/v) hydrochloric acid) and were incubated for 30 minutes at 37.5° C. For testing temperature resistance, peptides were incubated at 70° C., 75° C., or 100° C. for one hour in 0.5 mM PBS, pelleted, and then the supernatant was analyzed by HPLC.
(§2) This example illustrates peptide stability in biological conditions including in the presence of reducing agents, proteases, oxidative conditions, acidic conditions, and simulated gastric fluids. […] Various peptides were suspended in 500 μl of ddH2O at a stock concentration of 2 mg/ml. This was then diluted in accord with the reaction conditions to prevent adverse buffering effects. Reactions were prepared with 12.5 μg peptide dissolved in solution and, in some samples, additionally suspended in a 10 mM solution of DTT, simulated gastric fluid (pH 1.05; […] sodium chloride in 0.7% (v/v) hydrochloric acid), 500 U pepsin (5000 U/ml pepsin), 50 U trypsin (500 U/ml trypsin) with 1 mg/ml inhibitor in PBS, or a combination of any of these conditions. All protease reactions were incubated for 30 min at room temperature and then quenched. Pepsin reactions were quenched by adding Tris base to a final concentration of 0.075 M. Trypsin reactions were quenched by adding excess soybean trypsin inhibitor. RP-HPLC was then run on samples using an Agilent 1260 HPLC equipped with a C-18 Poroshell 120B column. Sample were analyzed by a gradient method with a mobile phase of Solvent A (water with 0.1% TFA) and Solvent B (acetonitrile with 0.1% TFA). Solvent B was ramped up from 5%-45% of the mobile phase over a period of 10 minutes.
Soluble peptides were exposed to 500 U/mL porcine trypsin and analyzed by HPLC. Protease resistance was also assessed by using SDPR-displaying peptides. The SDPR vector is similar to the a surface display GFP FasL(SDGF) vector, but contains a C-terminal 6×His tag (SEQ ID NO: 180) and all basic or aromatic amino acid residues on the stalk removed. Protease resistance is then tested by incubation of cells displaying peptides with trypsin or chymotrypsin, followed by incubation in 10 mM DTT, and staining with an anti-6×His fluorophore-labeled antibody (“6×His” disclosed as SEQ ID NO: 180). If peptides are uncleaved, they retain the His tag and are stained with by the antibody. A control protease-sensitive knottin peptide (SK) was used as a positive control. Cells displaying peptides were treated with up to 40 μg/ml trypsin or chymotrypsin.
FIG. 21 illustrates high performance liquid chromatograph (HPLC) traces of peptides after trypsin digestion. […] The assay was carried out by reconstituting 1 mg porcine trypsin (Sigma Aldrich 6567) in 1 mL of 1 mM HCl. Trypsin was provided at a concentration of 10,000 u/mL and thus, 5 μl of stock solution was equivalent to using 50 U of trypsin in each reaction. Soybean trypsin inhibitor (SA T9128) was prepared at 1 mg/mL of in H2O. […]

[1] = Resistance to elevated temperature, HPLC; type: physicochemical; conditions: HPLC; for resistance to incubation at 70° C. (in words): 70° C. for 1 hour; for resistance to incubation at 100° C. (in words): 100° C. for 1 hour
Experimental: as §1
This example illustrates peptide stability at high temperatures. Peptides were first suspended in 500 μl of ddH2O to a stock concentration of 2 mg/ml. Reactions were prepared by adding 6.25 μl of peptide from the stock solution with 95 μl ddH2O and incubated at room temperature, 70° C., or 100° C. for one hour in a Thermocycler. RP-HPLC was then run on samples using an Agilent 1260 HPLC equipped with a C-18 Poroshell 120B column. Sample were analyzed by a gradient method with a mobile phase of Solvent A (water with 0.1% TFA) and Solvent B (acetonitrile with 0.1% TFA). Solvent B was ramped up from 5%-45% of the mobile phase over a period of 10 minutes.

pepsin = pepsin (Sus scrofa, UniProt P00791); assay: Pepsin digestion resistance in simulated gastric fluid, RP-HPLC; type: in vitro ADME, porcine; parameters: purchased Sigma Aldrich P7012; conditions: 500 U/ml pepsin (50 U per reaction) in SGF, 30 minutes at 37.5° C.; HPLC
Chain of pepsin (P00791 60-385): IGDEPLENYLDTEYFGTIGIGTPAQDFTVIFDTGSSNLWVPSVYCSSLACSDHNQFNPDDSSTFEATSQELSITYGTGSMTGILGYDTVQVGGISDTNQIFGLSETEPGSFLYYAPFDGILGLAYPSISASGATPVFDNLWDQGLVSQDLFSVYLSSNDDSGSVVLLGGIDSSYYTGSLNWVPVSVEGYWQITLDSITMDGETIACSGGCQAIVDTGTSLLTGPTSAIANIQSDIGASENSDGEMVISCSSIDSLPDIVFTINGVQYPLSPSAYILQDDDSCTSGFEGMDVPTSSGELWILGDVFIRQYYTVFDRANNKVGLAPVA
Experimental: Peptides were first suspended in 500 ul of ddH2O to a stock concentration of 2 mg/ml. Reactions were prepared by adding 12.5 ug of peptide from the stock solution to a 10 mM solution of DTT in PBS and allowed to incubate at room temperature for 30 minutes. Other reactions were prepared with 12.5 μg peptide with or without 500 U/ml pepsin in simulated gastric fluid (SGF; pH 1.05; […] sodium chloride in 0.7% (v/v) hydrochloric acid) and were incubated for 30 minutes at 37.5° C. Some reactions were quenched with a final concentration of 100 mM Tris base and 10 mM dithiothreitol (DTT). Some reactions were performed in all of the above components, including simulated gastric fluid, pepsin, Tris, and DTT (referred to as SPTD). Reversed phase HPLC (RP-HPLC) was run on samples using an Agilent 1260 HPLC equipped with a C-18 Poroshell 120B column. Sample were analyzed by a gradient method with a mobile phase of Solvent A (water with 0.1% TFA) and Solvent B (acetonitrile with 0.1% TFA). Solvent B was ramped up from 5%-45% of the mobile phase over a period of 10 minutes. Peptides were detected at an absorbance of 214 nm and 280 nm.
as §1, §2
FIG. 20 illustrates high performance liquid chromatograph (HPLC) traces of peptides after pepsin digestion. […]

Row | Molecule | resistance to trypsin digestion (in words) (trypsin) | resistance to incubation at 70° C. (in words) [1] | resistance to incubation at 100° C. (in words) [1] | resistance to pepsin digestion (in words) (pepsin)
1 | CC[C@H](C)[C@@H]1NC(=O)[C@H](CCCCN)NC(=O)[C@@H](NC(=O)[C@H](CCCCN)NC(=O)[C@@H](NC(=O)[C@H](CC(N)=O)NC(=O)[C@@H](NC(=O)[C@@H](NC(=O)[C@@H](NC(=O)CNC(=O)[C@H](CO)NC(=O)CN)C(C)C)[C@@H](C)CC)[C@@H](C)CC)C(C)C)CSSC[C@@H]2NC(=O)[C@H](CCCCN)NC(=O)CNC(=O)[C@H](Cc3ccccc3)NC(=O)[C@H](CCCNC(=N)N)NC(=O)[C@H](CCSC)NC(=O)CNC(=O)[C@H](C)NC(=O)[C@H](CCCCN)NC(=O)[C@H](CCCCN)NC(=O)[C@@H]3CSSC[C@@H](C(=O)N[C@H](C(=O)N4CCC[C@H]4C(=O)N[C@@H](CCCCN)C(=O)O)[C@@H](C)O)NC(=O)[C@H](Cc4c[nH]cn4)NC(=O)[C@H](CSSC[C@H](NC(=O)[C@H](CCC(N)=O)NC(=O)[C@H](CCCNC(=N)N)NC(=O)[C@H](CO)NC1=O)C(=O)N[C@@H](CC(C)C)C(=O)N[C@@H](CCC(=O)O)C(=O)N1CCC[C@H]1C(=O)N3)NC(=O)[C@H](CCCCN)NC(=O)CNC(=O)[C@H](CC(N)=O)NC(=O)[C@H](CCSC)NC2=O [SEQ ID NO: 57] | highly resistant; also recorded: fully resistant | – | – | –
2 | GSACLAEYQKCEGSTVPCCPGLSCSAGRFRKTKLCTK [SEQ ID NO: 25] | – | resistant | various degrees of degradation | –
3 | CC[C@H](C)[C@@H]1NC(=O)[C@@H](NC(=O)[C@H](CC(=O)O)NC(=O)[C@H](CCCCN)NC(=O)[C@H](CCC(=O)O)NC(=O)[C@H](CO)NC(=O)[C@H](CO)NC(=O)CN)CSSC[C@@H]2NC(=O)[C@@H]3CSSC[C@@H](C(=O)N[C@@H](CCCNC(=N)N)C(=O)O)NC(=O)[C@H](CCCNC(=N)N)NC(=O)[C@H](CCCCN)NC(=O)[C@H](CCC(=O)O)NC(=O)[C@@H]4CCCN4C(=O)[C@H](CC(N)=O)NC(=O)[C@H]([C@@H](C)O)NC(=O)CNC(=O)[C@H](CCCNC(=N)N)NC(=O)[C@H](CCCNC(=N)N)NC(=O)[C@H](CO)NC(=O)[C@H](CSSC[C@H](NC(=O)[C@H](CCCNC(=N)N)NC(=O)[C@H](CCC(N)=O)NC(=O)[C@H](CC(C)C)NC(=O)[C@H](Cc4c[nH]cn4)NC(=O)[C@H](CCCCN)NC1=O)C(=O)N[C@@H](CCCNC(=N)N)C(=O)N[C@@H](CCC(=O)O)C(=O)N[C@@H](CC(N)=O)C(=O)N[C@@H](CCCCN)C(=O)N[C@@H](CC(=O)O)C(=O)N3)NC(=O)[C@H](CCCCN)NC(=O)[C@H](CCCCN)NC(=O)[C@H](CO)NC2=O [SEQ ID NO: 29] (H-GSSEKDCIKHLQRCRENKDCCSKKCSRRGTNPEKRCR-OH; disulfide 7-21, 14-25, 20-36) | – | – | – | resistant
4 | GSACQFWSCNSSCISRGYRQGYCWGIQYKYCQCQ [SEQ ID NO: 17] | – | – | resistant | –
5 | GSEVIRCSGSKQCYGPCKQQTGCTNSKCMNKVCKCYGCG [SEQ ID NO: 23] | – | resistant | various degrees of degradation | –
